{"source": "IntAct's records for PubMed 25081058", "parents": {"B1": {"name": "Tyrosine-protein phosphatase non-receptor type 18 (Homo sapiens), Q99952-1 (parent)", "chain": "MSRSLDSARSFLERLEARGGREGAVLAGEFSDIQACSAAWKADGVCSTVAGSRPENVRKNRYKDVLPYDQTRVILSLLQEEGHSDYINGNFIRGVDGSLAYIATQGPLPHTLLDFWRLVWEFGVKVILMACREIENGRKRCERYWAQEQEPLQTGLFCITLIKEKWLNEDIMLRTLKVTFQKESRSVYQLQYMSWPDRGVPSSPDHMLAMVEEARRLQGSGPEPLCVHCSAGCGRTGVLCTVDYVRQLLLTQMIPPDFSLFDVVLKMRKQRPAAVQTEEQYRFLYHTVAQMFCSTLQNASPHYQNIKENCAPLYDDALFLRTPQALLAIPRPPGGVLRSISVPGSPGHAMADTYAVVQKRGAPAGAGSGTQTGTGTGTGARSAEEAPLYSKVTPRAQRPGAHAEDARGTLPGRVPADQSPAGSGAYEDVAGGAQTGGLGFNLRIGRPKGPRDPPAEWTRV"}}, "data": [{"variants_of": "B1", "conditions": "with fbw1a_human BTRC", "values": [{"variant": "S423A", "effect of a mutation on the interaction": "disrupting interaction strength"}, {"variant": "S419A", "effect of a mutation on the interaction": "decreasing interaction strength"}]}]}
